Experimental data: patent publication US20040059519A1
Several values for one entry are separate records, joined by “and”; a condition that tells them apart may be missing. Identical values can stand only once. Values belong to the substance of their own block, whether it stands above or below them.

Tests used:
[1] = biological target: Peptide 5 …-biotin (human); experiment: multiplex 9-peptide bead set, flow cytometry; MAB 384-Bodipy 15.5 ug/mL
Peptide 4 …-biotin = experiment: as above
Peptide 9 …-biotin [2] = experiment: as above
Peptide 6 …-biotin = experiment: as above
Peptide 3 …-biotin [3] = experiment: as above
Peptide 1 …-biotin = experiment: as above
Peptide 2 …-biotin = experiment: as above
Peptide 7 …-biotin [4] = experiment: as above
Peptide 8 …-biotin = experiment: as above
[5] = biological target: Peptide 5 …-biotin (human); experiment: multiplex peptide beads, flow cytometry; antibody pre-mixed with soluble HYGSLPQK 10 ug/mL (competitor m18)
Peptide 9 …-biotin [6] = experiment: as above
Peptide 3 …-biotin [7] = experiment: as above
Peptide 7 …-biotin [8] = experiment: as above
[9] = biological target: Neutravidin (deglycosylated avidin) (UniProt P02701); experiment: multiplex, Neutravidin bead 40/40 without peptide, flow cytometry
Chain of UniProt P02701 (P02701 25-152 limits assumed): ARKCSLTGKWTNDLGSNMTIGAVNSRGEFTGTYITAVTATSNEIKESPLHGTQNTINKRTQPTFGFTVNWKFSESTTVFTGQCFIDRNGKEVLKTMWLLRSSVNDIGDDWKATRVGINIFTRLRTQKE

[10] = biological target: Neutravidin (deglycosylated avidin) (UniProt P02701); experiment: single-analyte, Neutravidin bead 60/70 without peptide, flow cytometry
[11] = biological target: Neutravidin (deglycosylated avidin) (UniProt P02701); experiment: single-analyte, Neutravidin bead 40/70 without peptide, flow cytometry
[12] = biological target: Neutravidin (deglycosylated avidin) (UniProt P02701); experiment: multiplex, Neutravidin bead 70/50 without peptide, flow cytometry
Alpha fetoprotein [13] = biological target: Alpha fetoprotein (UniProt P02771); experiment: multiplex sandwich, S10473 capture beads; AFP 0.25 ng/mL, no wash
Chain of UniProt P02771 (P02771 19-609 limits assumed): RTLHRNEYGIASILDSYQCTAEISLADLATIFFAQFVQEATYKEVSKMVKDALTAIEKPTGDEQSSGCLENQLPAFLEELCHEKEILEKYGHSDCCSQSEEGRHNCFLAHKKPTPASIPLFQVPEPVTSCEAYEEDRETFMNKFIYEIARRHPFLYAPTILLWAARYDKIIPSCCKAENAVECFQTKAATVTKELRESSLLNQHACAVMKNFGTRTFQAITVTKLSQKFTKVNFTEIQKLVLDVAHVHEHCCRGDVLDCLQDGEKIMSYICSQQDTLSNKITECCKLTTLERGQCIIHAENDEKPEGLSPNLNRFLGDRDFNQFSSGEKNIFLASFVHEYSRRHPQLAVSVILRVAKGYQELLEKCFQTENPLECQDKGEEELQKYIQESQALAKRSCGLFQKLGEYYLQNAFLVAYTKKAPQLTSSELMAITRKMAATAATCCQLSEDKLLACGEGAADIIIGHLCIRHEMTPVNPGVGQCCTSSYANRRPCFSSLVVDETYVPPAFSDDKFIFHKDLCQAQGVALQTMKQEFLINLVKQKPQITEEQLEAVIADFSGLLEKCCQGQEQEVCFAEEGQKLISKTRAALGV

[14] = biological target: Human chorionic gonadotropin (human) (UniProt P01215); experiment: anti-AFP capture beads, flow cytometry; hCG 0.1 ng/mL, anti-AFP probe
Chain of UniProt P01215 (P01215 25-116, chain 1 of 2, other chains not shown): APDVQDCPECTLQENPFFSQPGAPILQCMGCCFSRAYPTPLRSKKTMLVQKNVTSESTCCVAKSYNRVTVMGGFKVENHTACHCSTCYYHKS

Alpha fetoprotein [15] = biological target: Alpha fetoprotein (UniProt P02771); experiment: multiplex no-wash sandwich, S10473 beads; serum Level 3, AFP 223 U/mL
Alpha fetoprotein [16] = biological target: Alpha fetoprotein (UniProt P02771); experiment: multiplex sandwich, S10473 capture beads; AFP 1 ng/mL, no wash
Alpha fetoprotein [17] = biological target: Alpha fetoprotein (UniProt P02771); experiment: anti-AFP capture beads, flow cytometry; AFP 0.1 ng/mL, anti-AFP probe
Alpha fetoprotein [18] = biological target: Alpha fetoprotein (UniProt P02771); experiment: multiplex sandwich, S10473 capture beads; AFP 250 ng/mL, no wash
Alpha fetoprotein [19] = biological target: Alpha fetoprotein (UniProt P02771); experiment: multiplex sandwich, S10473 capture beads; AFP 62 ng/mL, washed
[20] = biological target: Human chorionic gonadotropin (human) (UniProt P01215); experiment: anti-AFP capture beads, flow cytometry; hCG 10.0 ng/mL, anti-AFP probe
[21] = biological target: Human chorionic gonadotropin (human) (UniProt P01215); experiment: multiplex sandwich, MAB602 capture beads; hCG 8 ng/mL, no wash
[22] = biological target: Human chorionic gonadotropin (human) (UniProt P01215); experiment: sandwich, MAB602 capture beads, flow cytometry; hCG 200 ng/mL
[23] = biological target: Human chorionic gonadotropin (human) (UniProt P01215); experiment: multiplex sandwich, MAB602 capture beads; hCG 1000 ng/mL, no wash
[24] = biological target: Human chorionic gonadotropin (human) (UniProt P01215); experiment: MAB602 capture beads, flow cytometry; hCG 10.0 ng/mL, anti-hCG probe
[25] = biological target: Human chorionic gonadotropin (human) (UniProt P01215); experiment: bead sandwich, flow cytometry; capture A3 beads, hCG 20.0 ug/mL
[26] = biological target: Human chorionic gonadotropin (human) (UniProt P01215); experiment: multiplex sandwich, MAB602 capture beads; hCG 4 ng/mL, no wash
[27] = biological target: Human chorionic gonadotropin (human) (UniProt P01215); experiment: multiplex sandwich, MAB602 capture beads; hCG 16 ng/mL, washed
[28] = biological target: Human chorionic gonadotropin (human) (UniProt P01215); experiment: multiplex no-wash sandwich, MAB602 beads; serum Level 3, hCG 436 mU/mL
Alpha fetoprotein [29] = biological target: Alpha fetoprotein (UniProt P02771); experiment: anti-AFP capture beads, flow cytometry; AFP 10.0 ng/mL, anti-hCG probe
[30] = biological target: Human chorionic gonadotropin (human) (UniProt P01215); experiment: multiplex sandwich, MAB602 capture beads; hCG 250 ng/mL, no wash
[31] = biological target: Human chorionic gonadotropin (human) (UniProt P01215); experiment: multiplex sandwich, MAB602 capture beads; hCG 2 ng/mL, washed
Alpha fetoprotein [32] = biological target: Alpha fetoprotein (UniProt P02771); experiment: MAB602 capture beads, flow cytometry; AFP 1000.0 ng/mL, anti-hCG probe
[33] = biological target: Human chorionic gonadotropin (human) (UniProt P01215); experiment: multiplex sandwich, MAB602 capture beads; hCG 2000 ng/mL, no wash
[34] = biological target: Human chorionic gonadotropin (human) (UniProt P01215); experiment: sandwich, MAB602 capture beads, flow cytometry; hCG 0.02 ng/mL
[35] = biological target: Human chorionic gonadotropin (human) (UniProt P01215); experiment: multiplex sandwich, MAB602 capture beads; hCG 250 ng/mL, washed
[36] = biological target: Human chorionic gonadotropin (human) (UniProt P01215); experiment: bead sandwich, flow cytometry; capture A2 (MAB 602) beads, no hCG (background)

MIF of Fm [1]: 1350
MIF of Fm (Peptide 4 …-biotin): 35
MIF of Fm (Peptide 9 …-biotin [2]): 29
MIF of Fm (Peptide 6 …-biotin): 67
MIF of Fm (Peptide 3 …-biotin [3]): 36
MIF of Fm (Peptide 1 …-biotin): 28
MIF of Fm (Peptide 2 …-biotin): 36
MIF of Fm (Peptide 7 …-biotin [4]): 35
MIF of Fm (Peptide 8 …-biotin): 32
MIF of Fm [5]: 53
MIF of Fm (Peptide 9 …-biotin [6]): 17
MIF of Fm (Peptide 3 …-biotin [7]): 12
MIF of Fm (Peptide 7 …-biotin [8]): 11
MIF of Fm [9]: 25
MIF of Fm [10]: 48
MIF of Fm [11]: 43
MIF of Fm [12]: 28
Substance: MAB 384, Bodipy FL-X labeled (antibody)

MIF of Fm (Alpha fetoprotein [13]): 17
MIF of Fm [14]: 49
MIF AVG (Alpha fetoprotein [15]): 1060
MIF of FL1 (Alpha fetoprotein [15]): 1110 and 994 and 1080
MIF of Fm (Alpha fetoprotein [16]): 33
MIF of Fm (Alpha fetoprotein [17]): 44
MIF of Fm (Alpha fetoprotein [18]): 956
MIF of Fm (Alpha fetoprotein [19]): 814
MIF of Fm [20]: 45
Substance: M20077 affinity purified polyclonal anti-AFP antibody, Bodipy FL-CASE labeled

MIF of Fm [21]: 1760
MIF of Fm [22]: 9230 and 9400
MIF of Fm [23]: 770
MIF of Fm [24]: 530
MIF of Fm [25]: 3150
MIF of Fm [26]: 1120
MIF of Fm [27]: 2530
MIF AVG [28]: 624
MIF of FL1 [28]: 631 and 601 and 640
MIF of Fm (Alpha fetoprotein [29]): 44
MIF of Fm [30]: 1520
MIF of Fm [31]: 547
MIF of Fm (Alpha fetoprotein [32]): 53
MIF of Fm [33]: 491
MIF of Fm [34]: 120 and 147
MIF of Fm [35]: 2760
MIF of Fm [36]: 163
Substance: AB633 affinity purified polyclonal anti-hCG antibody, Bodipy FL-CASE labeled
